Measured values taken from patent publication US12099068B2, “Biomarkers for graft-versus-host disease” (Incyte Corporation, priority 2018, dated 2024).

Each molecule was assayed on plasma proteins (assay: Plasma proteins modulated between baseline and day 28 in responders (CR, VGPR, PR; n = 19), Example 6 (Table 13)). Conditions: plasma protein (OLINK NPX); responders (CR, VGPR, PR; n = 19); itacitinib 200 mg or 300 mg QD with corticosteroids; day 28 vs baseline.
Type: in vivo, human
Summary of the method: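 Plasma at baseline/screening and day 28 profiled for >1000 proteins by OLINK proximity extension assay, reported as NPX (log2). Steroid-naive and steroid-refractory patients pooled. Paired and unpaired t tests, ANOVA and Pearson correlation applied; significance at P<0.05.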

| Molecule | Fold Change, Decreased Expression from Baseline to Day 28 | Fold Change, Increased Expression from Baseline to Day 28 |
| --- | --- | --- |
| PDGF subunit B (protein, UniProt P01127 82-190, looked up) Platelet-derived growth …: SLGSLTIAEPAMIAECKTRTEVFEISRRLIDRTNANFLVWPPCVEVQRCSGCCNNRNVQCRPTQVQLRPVQVRKIEIVRKKPIFKKATVTLEDHLACKCETVAAARPVT | −1.9124 |  |
| SCARF1 (protein, UniProt Q14162 20-830, looked up) Scavenger receptor class F …: SELDPKGQHVCVASSPSAELQCCAGWRQKDQECTIPICEGPDACQKDEVCVKPGLCRCKPGFFGAHCSSRCPGQYWGPDCRESCPCHPHGQCEPATGACQCQADRWGARCEFPCACGPHGRCDPATGVCHCEPGWWSSTCRRPCQCNTAAARCEQATGACVCKPGWWGRRCSFRCNCHGSPCEQDSGRCACRPGWWGPECQQQCECVRGRCSAASGECTCPPGFRGARCELPCPAGSHGVQCAHSCGRCKHNEPCSPDTGSCESCEPGWNGTQCQQPCLPGTFGESCEQQCPHCRHGEACEPDTGHCQRCDPGWLGPRCEDPCPTGTFGEDCGSTCPTCVQGSCDTVTGDCVCSAGYWGPSCNASCPAGFHGNNCSVPCECPEGLCHPVSGSCQPGSGSRDTALIAGSLVPLLLLFLGLACCACCCWAPRSDLKDRPARDGATVSRMKLQVWGTLTSLGSTLPCRSLSSHKLPWVTVSHHDPEVPFNHSFIEPPSAGWATDDSFSSDPESGEADEVPAYCVPPQEGMVPVAQAGSSEASLAAGAFPPPEDASTPFAIPRTSSLARAKRPSVSFAEGTKFAPQSRRSSGELSSPLRKPKRLSRGAQSGPEGREAEESTGPEEAEAPESFPAAASPGDSATGHRRPPLGGRTVAEHVEAIEGSVQESSGPVTTIYMLAGKPRGSEGPVRSVFRHFGSFQKGQAEAKVKRAIPKPPRQALNRKKGSPGLASGSVGQSPNSAPKAGLPGATGPMAVRPEEAVRGLGAGTESSRRAQEPVSGCGSPEQDPQKQAEEERQEEPEYENVVPISRPPEP | −1.3509 |  |
| CCL17 (protein, UniProt Q92583 24-94, looked up) C-C motif chemokine 17: ARGTNVGRECCLEYFKGAIPLRKLKTWYQTSEDCSRDAIVFVTVQGRAICSDPNNKRVKNAVKYLQSLERS | −3.059 |  |
| CPXM1 (protein, UniProt Q96SM3 21-734, looked up) Probable carboxypeptidase X1: APRNSVLGLAQPGTTKVPGSTPALHSSPAQPPAETANGTSEQHVRIRVIKKKKVIMKKRKKLTLTRPTPLVTAGPLVTPTPAGTLDPAEKQETGCPPLGLESLRVSDSRLEASSSQSFGLGPHRGRLNIQSGLEDGDLYDGAWCAEEQDADPWFQVDAGHPTRFSGVITQGRNSVWRYDWVTSYKVQFSNDSRTWWGSRNHSSGMDAVFPANSDPETPVLNLLPEPQVARFIRLLPQTWLQGGAPCLRAEILACPVSDPNDLFLEAPASGSSDPLDFQHHNYKAMRKLMKQVQEQCPNITRIYSIGKSYQGLKLYVMEMSDKPGEHELGEPEVRYVAGMHGNEALGRELLLLLMQFLCHEFLRGNPRVTRLLSEMRIHLLPSMNPDGYEIAYHRGSELVGWAEGRWNNQSIDLNHNFADLNTPLWEAQDDGKVPHIVPNHHLPLPTYYTLPNATVAPETRAVIKWMKRIPFVLSANLHGGELVVSYPFDMTRTPWAARELTPTPDDAVFRWLSTVYAGSNLAMQDTSRRPCHSQDFSVHGNIINGADWHTVPGSMNDFSYLHTNCFEVTVELSCDKFPHENELPQEWENNKDALLTYLEQVRMGIAGVVRDKDTELGIADAVIAVDGINHDVTTAWGGDYWRLLTPGDYMVTASAEGYHSVTRNCRVTFEEGPFPCNFVLTKTPKQRLRELLAAGAKVPPDLRRRLERLRGQKD | −1.4779 |  |
| SLAMF1 (protein, UniProt Q13291 21-335, looked up) Signaling lymphocytic …: ASYGTGGRMMNCPKILRQLGSKVLLPLTYERINKSMNKSIHIVVTMAKSLENSVENKIVSLDPSEAGPPRYLGDRYKFYLENLTLGIRESRKEDEGWYLMTLEKNVSVQRFCLQLRLYEQVSTPEIKVLNKTQENGTCTLILGCTVEKGDHVAYSWSEKAGTHPLNPANSSHLLSLTLGPQHADNIYICTVSNPISNNSQTFSPWPGCRTDPSETKPWAVYAGLLGGVIMILIMVVILQLRRRGKTNHYQTTVEKKSLTIYAQVQKPGPLQKKLDSFPAQDPCTTIYVAATEPVPESVQETNSITVYASVTLPES | −1.2218 |  |
| EPHB4 (protein, UniProt P54760 16-987, looked up) Ephrin type-B receptor 4: LEETLLNTKLETADLKWVTFPQVDGQWEELSGLDEEQHSVRTYEVCDVQRAPGQAHWLRTGWVPRRGAVHVYATLRFTMLECLSLPRAGRSCKETFTVFYYESDADTATALTPAWMENPYIKVDTVAAEHLTRKRPGAEATGKVNVKTLRLGPLSKAGFYLAFQDQGACMALLSLHLFYKKCAQLTVNLTRFPETVPRELVVPVAGSCVVDAVPAPGPSPSLYCREDGQWAEQPVTGCSCAPGFEAAEGNTKCRACAQGTFKPLSGEGSCQPCPANSHSNTIGSAVCQCRVGYFRARTDPRGAPCTTPPSAPRSVVSRLNGSSLHLEWSAPLESGGREDLTYALRCRECRPGGSCAPCGGDLTFDPGPRDLVEPWVVVRGLRPDFTYTFEVTALNGVSSLATGPVPFEPVNVTTDREVPPAVSDIRVTRSSPSSLSLAWAVPRAPSGAVLDYEVKYHEKGAEGPSSVRFLKTSENRAELRGLKRGASYLVQVRARSEAGYGPFGQEHHSQTQLDESEGWREQLALIAGTAVVGVVLVLVVIVVAVLCLRKQSNGREAEYSDKHGQYLIGHGTKVYIDPFTYEDPNEAVREFAKEIDVSYVKIEEVIGAGEFGEVCRGRLKAPGKKESCVAIKTLKGGYTERQRREFLSEASIMGQFEHPNIIRLEGVVTNSMPVMILTEFMENGALDSFLRLNDGQFTVIQLVGMLRGIASGMRYLAEMSYVHRDLAARNILVNSNLVCKVSDFGLSRFLEENSSDPTYTSSLGGKIPIRWTAPEAIAFRKFTSASDAWSYGIVMWEVMSFGERPYWDMSNQDVINAIEQDYRLPPPPDCPTSLHQLMLDCWQKDRNARPRFPQVVSALDKMIRNPASLKIVARENGGASHPLLDQRQPHYSAFGSVGEWLRAIKMGRYEESFAAAGFGSFELVSQISAEDLLRIGVTLAGHQKKILASVQHMKSQAKPGTPGGTGGPAPQY | −1.2339 |  |
| TANK (protein, UniProt Q92844 1-425, looked up) TRAF family member-associated …: MDKNIGEQLNKAYEAFRQACMDRDSAVKELQQKTENYEQRIREQQEQLSLQQTIIDKLKSQLLLVNSTQDNNYGCVPLLEDSETRKNNLTLDQPQDKVISGIAREKLPKVRRQEVSSPRKETSARSLGSPLLHERGNIEKTFWDLKEEFHKICMLAKAQKDHLSKLNIPDTATETQCSVPIQCTDKTDKQEALFKPQAKDDINRGAPSITSVTPRGLCRDEEDTSFESLSKFNVKFPPMDNDSTFLHSTPERPGILSPATSEAVCQEKFNMEFRDNPGNFVKTEETLFEIQGIDPIASAIQNLKTTDKTKPSNLVNTCIRTTLDRAACLPPGDHNALYVNSFPLLDPSDAPFPSLDSPGKAIRGPQQPIWKPFPNQDSDSVVLSGTDSELHIPRVCEFCQAVFPPSITSRGDFLRHLNSHFNGET | −1.3124 |  |
| PEBP1 (protein, UniProt P30086 2-187, looked up) Phosphatidylethanolamine-bindi …: PVDLSKWSGPLSLQEVDEQPQHPLHVTYAGAAVDELGKVLTPTQVKNRPTSISWDGLDSGKLYTLVLTDPDAPSRKDPKYREWHHFLVVNMKGNDISSGTVLSDYVGSGPPKGTGLHRYVWLVYEQDRPLKCDEPILSNRSGDHRGKFKVASFRKKYELRAPVAGTCYQAEWDDYVPKLYEQLSGK | −1.307 |  |
| hK14 (protein, UniProt Q9P0G3 41-267, looked up) Kallikrein-14: IIGGHTCTRSSQPWQAALLAGPRRRFLCGGALLSGQWVITAAHCGRPILQVALGKHNLRRWEATQQVLRVVRQVTHPNYNSRTHDNDLMLLQLQQPARIGRAVRPIEVTQACASPGTSCRVSGWGTISSPIARYPASLQCVNINISPDEVCQKAYPRTITPGMVCAGVPQGGKDSCQGDSGGPLVCRGQLQGLVSWGMERCALPGYPGVYTNLCKYRSWIEETMRDK |  | 1.5574 |
